Several values for one entry are separate records, joined by “and”; a condition that tells them apart may be missing. Identical values can stand only once. Like-named read-outs stand apart in the source and are kept apart here.
B1: DH1017.IgM (antibody, V domains shown)
VH: QVQLQESGPGLVKPSQTLSLTCAVSGGSISSGDSYWSWIRQHPGKGLEWIGSIYYSGSTYYNPSLKSRVTIPIDTSKNQFSLKLSSVTAADTAVYYCARHVGDLRVNDAFDIWGQGTMVTVSS
VL: QSVLTQPPSVSAAPGQKVTISCSGSSSNIGNNFVSWYQRLPGTPPKLLIYDSDKRPSGIPDRFSGSKSGTSATLGITGLQTGDEGDYYCGTWDRSLSVVVFGGGTKLTVL
B2: DH1017.IgG (antibody, V domains shown)
VH: B1 VH
VL: B1 VL

Legend:
[1] = target: Dengue virus serotype 1 virion (Dengue virus serotype 1); experiment: cell-based or functional assay
[2] = target: Dengue virus serotype 2 virion (Dengue virus serotype 2); experiment: cell-based or functional assay
[3] = target: Dengue virus serotype 3 virion (Dengue virus serotype 3); experiment: cell-based or functional assay
[4] = target: Dengue virus serotype 4 virion (Dengue virus serotype 4); experiment: cell-based or functional assay
[5] = target: whole Zika virus (ZIKV) virion (Zika virus); experiment: cell-based or functional assay
[6] = target: whole Zika virus (ZIKV) virion (Zika virus); experiment: cell-based or functional assay; remark: listed apart in the source
[7] = target: whole Zika virus (ZIKV) virion (Zika virus); experiment: whole ZIKV virion ELISA, 5-fold dilutions from 100 ug/ml
[8] = target: whole Zika virus (ZIKV) virion (Zika virus); experiment: whole ZIKV virion ELISA; molar conversion with IgM ~970 KDa
[9] = target: whole Zika virus (ZIKV) virion (Zika virus); experiment: whole ZIKV virion ELISA; molar EC50 of IgM compared with IgG
[10] = target: whole Zika virus (ZIKV) virion (Zika virus); experiment: whole ZIKV virion ELISA; molar conversion with IgG ~150 KDa

Row | Binder | FRNT50 [1] | FRNT50 [2] | FRNT50 [3] | FRNT50 [4] | FRNT50 [5] | FRNT50 [6] | fold difference in neutralizing activity, IgM versus IgG at equal numbers of molecules [6] | EC50 [7] | EC50 [8] | fold difference of molar EC50 against DH1017.IgG [9] | EC50 [10]
1 | B1 | > 5 µg/mL | > 5 µg/mL | > 5 µg/mL | > 5 µg/mL | 6.57 ng/mL | 24.7 ng/ml and 25.5 pM | 40 fold | 0.046 µg/mL | 0.474 nM | 6 fold | 
2 | B2 |  |  |  |  |  |  |  | 0.045 µg/mL |  |  | 3 nM

— patent US12570725
